B1: Il-DyP4 (Irpex lacteus; W410F) (protein)
chain: SAGNDSLPFENIQGDILVGMKKDKEKFVFFHINNATAFKSVLKTYAPANITSVATIIGPVANQPLAFVNLAFSHAGFGALNVTDDLQDTAFSDGQFKDSPNLGDDTSTWEEAFKGTNVDGVFLIGSNDESITAQYRDDLNAKFGDAWTIVYDLDSAARPGNEKGHEHFGYLDGISNPTIPGFGTPHPGQAVVDPGIIFTGRSKDPVMNRPSWALDGSFLVFRKLKQLVPEFNKYVLDNALQNQAGNLTVEEGAELLGSRMFGRWKSGAPIDLSPDFDDPALGNDIERNNNFNYSHPGSDLATDQTRCPFTAHIRKTNPRDLEGQGLFGDTFHAIRAGTPYGPEVTDYEASSNTTTIDRGLAFVEYQSVIGNGFRFQQQAFANNPRFPFSKGPSIQLGLDPVIGQGSPRETFGLDPRNASESFTVPQVIISNGGEYFFSPSITAIVEKFAA
notes: monomer, model residues 6-450
B2: Il-DyP4 (Irpex lacteus; W294F) (protein)
chain: B1 chain with W264F, F380W
notes: monomer, model residues 6-450
B3: Il-DyP4 (Irpex lacteus; W410Y) (protein)
chain: B1 chain with F380Y
notes: monomer, model residues 6-450
B4: Il-DyP4 (Irpex lacteus) (protein)
chain: B1 chain with F380W
notes: monomer, model residues 6-450
B5: Il-DyP4 (Irpex lacteus; W294R) (protein)
chain: B1 chain with W264R, F380W
notes: monomer, model residues 6-450
B6: Il-DyP4 (Irpex lacteus; W294H) (protein)
chain: B1 chain with W264H, F380W
notes: monomer, model residues 6-450
B7: Il-DyP4 (Irpex lacteus; W139F) (protein)
chain: B1 chain with W109F, F380W
notes: monomer, model residues 6-450
B8: Il-DyP4 (Irpex lacteus; W294Y) (protein)
chain: B1 chain with W264Y, F380W
notes: monomer, model residues 6-450

For 8 proteins, Km, kcat and kcat/Km results are on record in paper PMC8165797.

Changes are numbered by the printed parent chain. In names and notes the source's numbering stands.

Substrate in one data set: CCn1c(=NN=c2sc3cc(S(=O)(=O)O)ccc3n2CC)sc2cc(S(=O)(=O)O)ccc21
Briefly: purified protein. The class given is biochemical, Irpex lacteus. To be noted: 0.1 mM H2O2, 10 mM sodium tartrate pH 3.5, 3.3 nM enzyme.
The term Km denotes the substrate concentration at which the rate is half of its maximum. Regarding B1, the Km was found to be 752.00 ± 207.21 µM, the kcat is 316.16 ± 61.61 s ^-1 and the kcat/Km entry was “(4.20 ± 2.90) × 10^5 M^-1 s^-1”.
For B2, the Michaelis constant (Km) turned out to be 71.87 ± 20.86 µM, the kcat is given as 384.85 ± 42.27 s ^-1 and the kcat/Km entry is “(5.35 ± 2.02) × 10^6 M^-1 s^-1”.
B3: the Km turned out to be 275.07 ± 77.79 µM, the kcat amounted to 88.38 ± 15.66 s ^-1 and the kcat/Km entry is reported as “(3.21 ± 2.01) × 10^5 M^-1 s^-1”.
Taken in the same sequence, the figures for B4 were 67.29 ± 13.05 µM, 790 ± 56.06 s ^-1 and “(1.17 ± 0.43) × 10^7 M^-1 s^-1”.
Taken in the same sequence, the figures for B5 were 19.47 ± 4.41 µM, 52.78 ± 2.86 s ^-1 and “(2.71 ± 0.65) × 10^6 M^-1 s^-1”.

Substrate in the next data set: COc1cccc(OC)c1O
Briefly: purified protein. It is filed as biochemical, Irpex lacteus. To be noted: 0.1 mM H2O2, 10 mM sodium tartrate pH 3.5, 3.3 nM enzyme.
As for B2, the Km came to 229.05 ± 30.79 µM, the kcat worked out at 71.21 ± 2.60 s ^-1 and the kcat/Km entry is “(3.11 ± 0.84) × 10^5 M^-1 s^-1”.
In the case of B6, the Km came out at 42.64 ± 6.32 µM, the kcat came to 54.29 ± 1.08 s ^-1 and the kcat/Km entry is given as “(1.27 ± 0.17) × 10^6 M^-1 s^-1”.
As to B7, the Michaelis constant (Km) came out at 172.71 ± 38.31 µM, the kcat is listed as 69.65 ± 3.46 s ^-1 and the kcat/Km entry is reported as “(4.03 ± 0.90) × 10^5 M^-1 s^-1”.
Taken in the same sequence, the figures for B4 were 8.98 ± 1.02 µM, 58.99 ± 0.45 s ^-1 and “(6.57 ± 0.44) × 10^6 M^-1 s^-1”.
On to B5, for which the Km is 1082.00 ± 283.00 µM, the kcat came out at 18.28 ± 2.30 s ^-1 and the kcat/Km result is “(1.69 ± 0.81) × 10^4 M^-1 s^-1”.
Taken in the same sequence, the figures for B8 were 953.00 ± 102.70 µM, 56.25 ± 2.81 s ^-1 and “(5.90 ± 2.74) × 10^4 M^-1 s^-1”.

Substrate in the next data set: Nc1c(S(=O)(=O)O)cc(Nc2cccc(S(=O)(=O)CCOS(=O)(=O)O)c2)c2c1C(=O)c1ccccc1C2=O
The data set is described as follows: purified protein. The class given is biochemical, Irpex lacteus. The conditions noted are these: 0.1 mM H2O2, 10 mM sodium tartrate pH 3.5, 3.3 nM enzyme.
On to B2, for which the Km worked out at 27.60 ± 7.70 µM, the kcat is listed as 46.11 ± 5.91 s ^-1 and the kcat/Km entry is given as “(1.67 ± 0.76) × 10^6 M^-1 s^-1”.
Take B4: the Michaelis constant (Km) is 139.87 ± 42.85 µM, the kcat is 187.90 ± 37.00 s ^-1 and the kcat/Km result is reported as “(1.34 ± 0.86) × 10^6 M^-1 s^-1”.
